Measurements reported in publication PMC4740875, “Sequential domain assembly of ribosomal protein S3 drives 40S subunit maturation” (Nature Communications, 2016).

B5: full-length Yar1 (Yar1-FL), SAXS sample (natural protein, S. cerevisiae, UniProt P46683 1-200, looked up)
chain: MGLHSEPLDQEDQDTIILDARAGDLDSLKDIFTTLVSPELLSTCKESESDSTALHMAAANGHIETVRYILETVSRANSAEDLKAFVNEVNKTGNTALHWASLNGKLDVVKLLCDEYEADPFIRNKFGHDAIFEAENSGKEEVETYFLKKYDVEPEDDEEDTQTEGKNSVQITKGTEIEQVTKEATEALREETEKLNINKD
notes: Yar1, ankyrin-repeat protein, S. cerevisiae, full-length; modelled as Yar1 (1-214 including tag; 14 N-terminal residues from the His-tag); not shown: His-tag, N-terminal, kept
B6: full-length Rps3 (ribosomal protein S3), SAXS sample (natural protein, S. cerevisiae, UniProt P05750 1-240, looked up)
chain: MVALISKKRKLVADGVFYAELNEFFTRELAEEGYSGVEVRVTPTKTEVIIRATRTQDVLGENGRRINELTLLVQKRFKYAPGTIVLYAERVQDRGLSAVAQAESMKFKLLNGLAIRRAAYGVVRYVMESGAKGCEVVVSGKLRAARAKAMKFADGFLIHSGQPVNDFIDTATRHVLMRQGVLGIKVKIMRDPAKSRTGPKALPDAVTIIEPKEEEPILAPSVKDYRPAEETEAQAEPVEA
notes: Rps3, S. cerevisiae, full-length; modelled as Rps3 (1-249 including tag); How the SAXS samples were produced is not described; the methods describe His6-tagged proteins from E. coli BL21 (DE3) Rosetta Star in general; also called r-protein S3

Experiments:
[1] = molecular target: T1, Yar1 core (8-153) (S. cerevisiae, UniProt P46683 8-153); test: SAXS; small-angle X-ray scattering in solution, direct injection or size exclusion separation before data collection; Tris-HCl 50 mM and NaCl 200 mM, pH 7.5; Rps3 constructs measured in complex with Yar1 constructs; settings: both partners purified
T1 construct: Yar1, S. cerevisiae, structural core lacking the N- and C-terminal extensions, residues 8-153; also called Yar1 structural core; Yar1(8-153)
T1 sequence (looked up): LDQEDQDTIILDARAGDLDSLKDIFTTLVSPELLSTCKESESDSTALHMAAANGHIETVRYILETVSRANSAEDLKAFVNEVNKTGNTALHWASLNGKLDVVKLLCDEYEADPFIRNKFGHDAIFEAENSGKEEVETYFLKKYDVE

[2] = molecular target: B5; test: as above; settings: both partners purified
[3] = molecular target: T2, His6-Rps3 (S. cerevisiae, UniProt P05750 1-240); test: pull-down; in vitro competition: purified His6-Rps3/Yar1 complex immobilized on Ni-NTA agarose, incubated with buffer or an ∼6-fold molar excess (over Rps3) of purified Ltv1-Flag and/or Enp1-FPA; supernatants and eluates by Coomassie or western blot; settings: both partners purified
T2 construct: Rps3, S. cerevisiae; expressed from pETDuet-1; source: E. coli BL21 (DE3) Rosetta Star, purified (Ni-NTA agarose) in complex with Yar1 or with Ltv1-Flag; not shown: His6, N-terminal, kept
T2 sequence (looked up): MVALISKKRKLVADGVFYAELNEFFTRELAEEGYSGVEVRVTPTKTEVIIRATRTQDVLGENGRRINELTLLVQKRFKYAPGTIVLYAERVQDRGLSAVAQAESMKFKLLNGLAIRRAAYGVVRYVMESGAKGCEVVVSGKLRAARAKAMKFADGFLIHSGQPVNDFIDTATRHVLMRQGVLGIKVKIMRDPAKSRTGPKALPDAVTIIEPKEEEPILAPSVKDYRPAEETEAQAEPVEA

[4] = molecular target: T3, Enp1-Flag-TEV-ProteinA (Enp1-FPA) (S. cerevisiae, UniProt P38333 1-483); test: as above; settings: both partners purified
T3 construct: Enp1, S. cerevisiae; A TEV site lies between Flag and Protein A; expressed from pET15b; source: E. coli, purified (anti-Flag agarose); not shown: Flag, C-terminal, kept; Protein A, C-terminal, kept
T3 sequence (looked up): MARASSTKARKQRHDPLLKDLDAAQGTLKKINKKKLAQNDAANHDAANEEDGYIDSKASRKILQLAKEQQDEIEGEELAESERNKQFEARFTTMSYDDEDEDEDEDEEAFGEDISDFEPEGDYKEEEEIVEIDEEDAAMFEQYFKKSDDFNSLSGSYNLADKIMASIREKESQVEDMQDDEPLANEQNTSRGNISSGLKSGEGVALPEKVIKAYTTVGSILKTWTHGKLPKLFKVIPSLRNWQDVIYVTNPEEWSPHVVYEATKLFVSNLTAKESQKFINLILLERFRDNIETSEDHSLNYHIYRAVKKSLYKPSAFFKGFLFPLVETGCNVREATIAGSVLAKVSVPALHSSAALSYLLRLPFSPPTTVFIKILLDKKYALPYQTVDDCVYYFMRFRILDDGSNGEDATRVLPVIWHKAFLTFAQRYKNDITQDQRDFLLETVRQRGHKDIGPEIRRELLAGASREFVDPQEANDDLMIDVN

[5] = molecular target: T2, His6-Rps3; test: pull-down; in vitro competition: purified His6-Rps3/Ltv1-Flag complex immobilized on Ni-NTA agarose, incubated with buffer or an ∼1.5-fold or 6-fold molar excess of purified Flag-Yar1; eluates and supernatants by Coomassie or western blot; settings: both partners purified
[6] = molecular target: B6; test: SAXS; small-angle X-ray scattering in solution, direct injection or size exclusion separation before data collection; Tris-HCl 50 mM and NaCl 200 mM, pH 7.5; Rps3 constructs measured in complex with Yar1 constructs; settings: both partners purified
[7] = molecular target: the molecule itself; test: as above

B1: Rps3 N-domain (1-95) (domain or fragment, S. cerevisiae, UniProt P05750 1-95, looked up)
chain: MVALISKKRKLVADGVFYAELNEFFTRELAEEGYSGVEVRVTPTKTEVIIRATRTQDVLGENGRRINELTLLVQKRFKYAPGTIVLYAERVQDRG
notes: Rps3, S. cerevisiae, N-domain, residues 1-95
Q: Does B1 bind [1]?
A: binds

Q: Does B1 bind [2]?
A: binds

B2: Yar1 of the purified His6-Rps3/Yar1 complex (natural protein, S. cerevisiae, UniProt P46683 1-200, looked up)
chain: MGLHSEPLDQEDQDTIILDARAGDLDSLKDIFTTLVSPELLSTCKESESDSTALHMAAANGHIETVRYILETVSRANSAEDLKAFVNEVNKTGNTALHWASLNGKLDVVKLLCDEYEADPFIRNKFGHDAIFEAENSGKEEVETYFLKKYDVEPEDDEEDTQTEGKNSVQITKGTEIEQVTKEATEALREETEKLNINKD
notes: Yar1, S. cerevisiae; No tag is named for Yar1 in this complex; source: E. coli BL21 (DE3) Rosetta Star, purified in complex with His6-Rps3 (Ni-NTA agarose)
Q: Does B2 bind [3]?
A: binds

B3: Ltv1-Flag (natural protein, S. cerevisiae, UniProt P34078 1-463, looked up)
chain: MSKKFSSKNSQRYVVVHRPHDDPSFYDTDASAHVLVPVSNPNKTSPEADLRKKDVSSTKPKGRRAHVGEAALYGINFDDSEYDYTQHLKPIGLDPENSIFIASKGNEQKVEKKNIEDLFIEPKYRRDEIEKDDALPVFQRGMAKPEYLLHQQDTTDEIRGFKPDMNPALREVLEALEDEAYVVNDDVVVEDISKKTQLQGDNYGEEEKEDDIFAQLLGSGEAKDEDEFEDEFDEWDIDNVENFEDENYVKEMAQFDNIENLEDLENIDYQADVRRFQKDNSILEKHNSDDEFSNAGLDSVNPSEEEDVLGELPSIQDKSKTGKKKRKSRQKKGAMSDVSGFSMSSSAIARTETMTVLDDQYDQIINGYENYEEELEEDEEQNYQPFDMSAERSDFESMLDDFLDNYELESGGRKLAKKDKEIERLKEAADEVSKGKLSQRRNRERQEKKKLEKVTNTLSSLKF
notes: Ltv1, S. cerevisiae; expressed from pET15b; source: E. coli, purified (anti-Flag agarose); also co-expressed in E. coli with His6-Rps20 (in lysate) and purified in complex with His6-Rps3; not shown: Flag, C-terminal, kept
Q: Does B3 bind [4]?
A: binds

B4: Flag-Yar1 (natural protein, S. cerevisiae, UniProt P46683 1-200, looked up)
chain: MGLHSEPLDQEDQDTIILDARAGDLDSLKDIFTTLVSPELLSTCKESESDSTALHMAAANGHIETVRYILETVSRANSAEDLKAFVNEVNKTGNTALHWASLNGKLDVVKLLCDEYEADPFIRNKFGHDAIFEAENSGKEEVETYFLKKYDVEPEDDEEDTQTEGKNSVQITKGTEIEQVTKEATEALREETEKLNINKD
notes: Yar1, S. cerevisiae; expressed from pETDuet-1; source: E. coli, purified (anti-Flag agarose); not shown: Flag, N-terminal, kept
Q: Does B4 bind [5]?
A: binds

Q: Does B5 bind [6]?
A: binds

Q: B6 was tested. Which “stoichiometry N” value [7] did it give?
A: 2
